In US20210139582A1:
pKd: −log10 of the molar value.

Key:
[1] = target: C-terminus biotinylated monomeric human CD32a^H (FcγRIIa, histidine-131 variant), recombinant (human) (UniProt P12318); assay: SPR, estimated steady state KD, monomeric IgG, pH 7.4
[2] = target: C-terminus biotinylated monomeric human CD32a^R (FcγRIIa, arginine-131 variant), recombinant (human) (UniProt P12318); assay: as above
C-terminus biotinylated monomeric human CD32a^R (FcγRIIa, arginine-131 variant), recombinant (human), sequence (P12318 other isoform, or with tags, fused parts or gaps mutant): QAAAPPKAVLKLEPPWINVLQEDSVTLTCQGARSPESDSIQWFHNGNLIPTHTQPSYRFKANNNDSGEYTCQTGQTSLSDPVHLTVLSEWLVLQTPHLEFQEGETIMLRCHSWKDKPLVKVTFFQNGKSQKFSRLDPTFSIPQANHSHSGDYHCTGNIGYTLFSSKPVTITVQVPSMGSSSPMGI

C-terminus biotinylated monomeric human CD32a^H (FcγRIIa, histidine-131 variant), recombinant (human), sequence (P12318 34-218 limits assumed, change not shown): as the sequence (P12318 other isoform, or with tags, fused parts or gaps mutant) above, with R134H counted along it
anti-NIP mouse IgG2a (mIgG2a^WT) (antibody), sequence (P01863 whole entry): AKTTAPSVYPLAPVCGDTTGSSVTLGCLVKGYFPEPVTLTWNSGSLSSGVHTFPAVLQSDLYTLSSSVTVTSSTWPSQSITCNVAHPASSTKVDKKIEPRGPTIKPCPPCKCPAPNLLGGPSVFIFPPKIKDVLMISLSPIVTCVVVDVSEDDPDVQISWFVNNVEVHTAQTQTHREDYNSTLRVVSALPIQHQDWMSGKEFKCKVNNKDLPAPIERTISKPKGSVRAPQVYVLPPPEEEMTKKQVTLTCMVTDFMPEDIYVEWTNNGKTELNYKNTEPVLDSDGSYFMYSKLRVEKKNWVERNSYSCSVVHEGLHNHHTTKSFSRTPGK

Substance | pKd [1] | pKd [2]
anti-NIP chimeric IgG with wild type human IgG1 Fc and murine anti-NIP antigen-binding domain (hIgG1^WT) (antibody) | 5.89 | 5.70
anti-NIP hIgG1-I253A/H310A/H435A (hIgG1^IHH) (from UniProt P01857 1-330) (antibody) |  | 5.43
anti-NIP mouse IgG1 (mIgG1^WT) (antibody) | 5.09 | 6.10
anti-NIP mouse IgG2a (mIgG2a^WT) (antibody) | 5.47 | 5.44

Further lines, results first:

pKd [1] | pKd [2] | Substance
 | 5.42 | anti-NIP hIgG1-M252Y/S254T/T256E/H433K/N434F (hIgG1^MST/HN) (from UniProt P01857 1-330) (antibody)
5.85 | 5.28 | anti-NIP hIgG2 (hIgG2^WT) (antibody)
5.30 | 5.35 | anti-NIP mouse IgG2b (mIgG2b^WT) (antibody)
